The source of these data is patent publication US9371393B2, “Class I anti-CEA antibodies and uses thereof” (Immunomedics, Inc., priority 2009, dated 2016).

Test [1] relates to Moser binding to fibronectin. The test can be described thus: Adhesion to extracellular matrix proteins assay, Moser. It is filed as cell-based, human. On the procedure:
(§1) Adhesion to extracellular matrix proteins assay—The assay was done using the CYTOMATRIX™ screening kit from CHEMICON® (Kit #ECM205, Temecula, Calif.). The kit contains 96-well plates with strips coated with fibronectin, vitronectin, laminin, collagen-I, or collagen-IV. Subconfluent cell cultures were used for these studies. Cells (1×10^6 cells/mol) were seeded onto coated substrate and incubated at 37° C. for 1 hour in a CO2 incubator in PBS containing Ca^2+/Mg^2+ (200 μL per well). Adherent cells were fixed and stained. The plate was washed to remove unadhered cells and stained with 100 μL per well of MTS (Cell Titer Aq 96, PROMEGA®, Madison, Wis.) for 5 minutes at room temperature. Excess stain was removed with three PBS washes. Solubilization buffer [100 μL of a 50:50 mixture of 0.1 mol/L NaH2PO4 (pH 4.5) and 50% ethanol] was added to each well. Relative attachment was determined using absorbance readings (A540 nm-A570 nm).

Test [2] has as its system MDA-468 adhesion to fibronectin. The test can be described thus: Adhesion to extracellular matrix proteins assay, MDA-468. It is filed as cell-based, human. On the procedure: as §1
Test [3] has as its target T1, ^125I-CEA (Homo sapiens, UniProt P06731).
T1 construct: purchased ROCHE
T1 sequence (P06731 35-676): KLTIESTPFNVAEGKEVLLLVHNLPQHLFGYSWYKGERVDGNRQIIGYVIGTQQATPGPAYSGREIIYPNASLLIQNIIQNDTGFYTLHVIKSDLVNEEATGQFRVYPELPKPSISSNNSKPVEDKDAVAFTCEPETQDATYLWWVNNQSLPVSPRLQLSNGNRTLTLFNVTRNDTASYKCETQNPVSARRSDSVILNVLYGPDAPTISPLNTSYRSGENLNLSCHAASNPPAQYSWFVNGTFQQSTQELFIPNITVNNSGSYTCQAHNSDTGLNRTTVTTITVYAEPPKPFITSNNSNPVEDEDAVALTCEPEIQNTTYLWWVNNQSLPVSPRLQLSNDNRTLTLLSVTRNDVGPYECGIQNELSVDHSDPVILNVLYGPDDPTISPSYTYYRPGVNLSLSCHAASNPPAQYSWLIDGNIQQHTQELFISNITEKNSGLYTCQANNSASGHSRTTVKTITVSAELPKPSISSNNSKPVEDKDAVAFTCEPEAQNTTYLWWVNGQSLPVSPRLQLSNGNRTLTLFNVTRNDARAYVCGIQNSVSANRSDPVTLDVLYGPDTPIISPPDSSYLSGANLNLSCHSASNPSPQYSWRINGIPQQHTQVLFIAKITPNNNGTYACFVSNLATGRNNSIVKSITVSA
The test is described as follows: ROCHE 125I-CEA radioimmunoassay (RIA). It is filed as binding. The note with it: 0.01 and 0.10 M NH4 acetate buffer. On the procedure:
Hybridoma supernatants were screened for CEA reactive antibody by the ROCHE® ^125I-CEA radioimmunoassay (RIA) in 0.01 and 0.10 M NH4 acetate buffer. Positive clones were recloned. The granulocyte reactivity of CEA-reactive MAb was determined by whole-blood indirect fluorescent flow cytometric analysis (Sharkey et al. Cancer Res., 1990, 50:2823-31). Two MAb with properties similar to those of NP-2 and NP-3, designated MN-2 and MN-6, were selected for additional development.

In test [4] the test system is MCA38 (CEACAM5−/CEACAM6−) adhesion to HUVEC. The test is described as follows: Endothelial cell adhesion assay, MCA38. It is filed as cell-based, murine. The note with it: 10 μg/mol Fab′. On the procedure: Percentage adhesion of various tumor cells with varying amounts of expressed CEACAM5 and CEACAM6 to HUVEC cells in the absence or presence of MN-15 Fab′, MN-3 Fab′, or Ag8 Fab′ control. Cells were labeled with 1 μCi/mL of ^3H-thymidine and added to HUVEC cultures and incubated for 30 minutes at 37° C. Samples were washed thrice with PBS to remove unattached cells. Attached tumor cells were solubilized with 0.1 N NaOH and radioactivity was measured in a B-scintillation counter. The cpm attached/total cpm added (attaching potential) was determined. Results of a typical study are presented. Cell lines used include BT-20 (CEACAM5+/CEACAM6+), MCF-7 (CEACAM5−/CEACAM6+), HT-29 (CEACAM5−/CEACAM6+), Moser (CEACAM5+/CEACAM6−), MCA38cea (CEACAM5+/CEACAM6−), and MCA38 (CEACAM5−/CEACAM6−).
Endothelial cell adhesion assay—Human umbilical vein endothelial cells (HUVEC; Cambrex, San Diego, Calif.) were grown in collagen-coated dishes in EGM Media in a humidified atmosphere with 5% CO2 at 37° C. At passages 2 to 5, cells were plated at a density of 4×10^4 cells per well in 96-well plates 24 hours before the assay. Interleukin-1β (IL-1β, 1 ng/mol) was added 4 hours before the assay. […] Attached cells were solubilized with 0.1 N NaOH and radioactivity was measured in a β scintillation counter. The cpm attached/total cpm added (attaching potential) was determined.

Test [5] has as its system MCF-7 cells. The test is described as follows: Collagen-based invasion assay, MCF-7. The note with it: 10% FBS chemoattractant, 72-hour incubation. It is filed as cell-based, human. On the procedure: (§2) Collagen-based invasion assay—The assay was done using CHEMICON® Kit (#ECM551, MILLIPORE®, Billerica, Mass.). Tumor cells at 80% confluence and were serum-starved for 18 to 24 hours before the assay was used. Cells were harvested with 5 mol of 2 mmol/L EDTA/PBS per 100-mm dish and incubated at 37° C. for 5 to 15 minutes. Cells were collected into 10 to 20 mol of quenching medium (serum-free DMEM containing 5% BSA) to inactivate trypsin/EDTA from the harvesting buffer. Cells were pelleted, resuspended in quenching medium (1×10^6 cells/mol), and appropriate antibody Fabs were added to individual cell aliquots. Cell invasion potential was determined as follows. Baseline invasion and invasion in the presence of a chemoattractant (10% FBS) were measured after a 72-hour incubation period at 37° C. in a 5% CO2 incubator. The bottom side of the collagen-coated polycarbonate membrane insert of the invasion chamber was placed in 400 μL of cell stain for 20 minutes at room temperature and washed. The dye was extracted and transferred into a 96-well microtiter plate for colorimetric measurements (A560 nm).

Test [6] concerns BXPC3 cells. The test can be described thus: Collagen-based invasion assay, BXPC3. It is filed as cell-based, human. To be noted: 10% FBS chemoattractant, 72-hour incubation. On the procedure:
as §2

Test [7] deals with ZR75-30 cells. The test is described as follows: Collagen-based invasion assay, ZR75-30. It is filed as cell-based, human. The note with it: 10% FBS chemoattractant, 72-hour incubation. Here is the method:
as §2

In test [8] the test system is MCF-7 cells adhesion to HUVEC. The test can be described thus: Endothelial cell adhesion assay, MCF-7. It is filed as cell-based, human. On the procedure: Endothelial cell adhesion assay—Human umbilical vein endothelial cells (HUVEC; Cambrex, San Diego, Calif.) were grown in collagen-coated dishes in EGM Media in a humidified atmosphere with 5% CO2 at 37° C. At passages 2 to 5, cells were plated at a density of 4×10^4 cells per well in 96-well plates 24 hours before the assay. Interleukin-1β (IL-1β, 1 ng/mol) was added 4 hours before the assay. At the start of the study, the medium with the IL-1β was removed and fresh DMEM with 1% bovine serum albumin (BSA) added and incubated for 30 minutes. Fresh medium without antibodies or with 10 μg/mol of MN-15 Fab′, MN-3 Fab′, or Ag8 Fab′ was added. Tumor cells (1×10^6 cells/mol) prelabeled overnight with ^3H-thymidine (100 μL per well using 1.0 μCi/mL) were added to HUVEC cultures and incubated for 30 minutes at 37° C. with rotation in medium with 20% FBS. Samples were washed thrice with PBS to remove unattached cells. Attached cells were solubilized with 0.1 N NaOH and radioactivity was measured in a β scintillation counter. The cpm attached/total cpm added (attaching potential) was determined.

B1: MN-15: murine Class I anti-CEA MAb, IgG1 kappa, binds A1B1 domain of CEACAM5 and CEACAM6 (antibody, V domains shown)
VL: DIQLTQSPAIMSASPGEKVTMTCSASSRVSYIHWYQQKSGTSPKRWIYGTSTLASGVPARFSGSGSGTSYSLTISSMEAEDAATYYCQQWSYNPPTFGAGTKLELKR
VH: EVRLVESGGGLVQGPGSLRLSCAASGFALTDYYMSWVRQSPGKTLEWLGFIANKANGHTTDYSPSVKGRFTISRDNSQTILYLQMNTLRTEDSATYYCARDMGIRWNFDVWGQGTTVTVSS
As for B1, the “effect on binding to fibronectin” value in test [1] is on record as “not affecting the binding”. Also, the “decrease of adhesion to fibronectin” value in test [2] was 51%. In test [3], the “ion sensitivity of CEA binding / reactivity with ion-sensitive CEA determinant” value is recorded as “binding to epitopes of the ion-sensitive CEA determinant”.

B2: MN-15 Fab′: monovalent Fab′ fragment of murine MN-15 (antibody, V domains shown)
VL: B1 VL
VH: B1 VH
Regarding B2, the “effect on tumor cell-endothelial cell adhesion” value in test [4] is on record as “neither MN-3 Fab′ targeting the N domain nor MN-15 Fab′ targeting the A1B1 domain of CEACAM6 had an effect”. The “reduction in cell invasion” value in test [5] worked out at 77%; in test [6] it was 44%; in test [7] it was 49%. This molecule also showed a decrease in adhesion in test [8] of 41%.
